# Test results published in the supplement of paper PMC10266784.
# B1: library; numbered along this chain (parent)
# chain: MAAAAAAAAEQQSSNGPVKKSMREKAVERRSVNKEHNSNFKAGYIPIDEDRLHKTGLRGRKGNLAICVIILLFILAVINLIITLVIWAVIRIGPNGCDSMEFHESGLLRFKQVSDMGVIHPLYKSTVGGRRNENLVITGNNQPIVFQQGTTKLSVENNKTSITSDIGMQFFDPRTQNILFSTDYETHEFHLPSGVKSLNVQKASTERITSNATSDLNIKVDGRAIVRGNEGVFIMGKTIEFHMGGNMELKAENSIILNGSVMVSTTRLPSSSSGDQLGSGDWVRYKLCMCADGTLFKVQVTSQNMGCQISDNPCGNTH
# Variants of: B1
# Assay: SGCB cell-surface expression functional score (HA stain, bin4 vs bin1, normalised to synonymous) (log10 ratio); higher = more cell-surface SGCB (functional)
# How it was run: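 HEK293 cells stably expressing alpha-, gamma- and delta-sarcoglycan received codon-saturation libraries of HA-tagged, YFP-fused human beta-sarcoglycan by lentiviral transduction at MOI <0.1, performed in duplicate. Cells positive for YFP were sorted after 72 hours and cultured for 5–7 days, then stained on ice with Alexa Fluor 647 anti-HA and fixed. Fixed cells were sorted into four 5% intensity bins and amplicon-sequenced, and the log ratio of highest-bin to lowest-bin variant frequency, as a median over codons and transductions, gives the functional score. Per section, synonymous variants were scaled to mean 0, SD 0.5.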
row,Variant,SGCB cell-surface expression functional score (log10)
1,MAAAAAAAAEQQSSNGPVKKSMREKAVERRSVNKEHNSNFKAGYIPIDSDRLHKTGLRGRKGNLAICVIILLFILAVINLIITLVIWAVIRIGPNGCDSMEFHESGLLRFKQVSDMGVIHPLYKSTVGGRRNENLVITGNNQPIVFQQGTTKLSVENNKTSITSDIGMQFFDPRTQNILFSTDYETHEFHLPSGVKSLNVQKASTERITSNATSDLNIKVDGRAIVRGNEGVFIMGKTIEFHMGGNMELKAENSIILNGSVMVSTTRLPSSSSGDQLGSGDWVRYKLCMCADGTLFKVQVTSQNMGCQISDNPCGNTH [E49S],0.15
2,MAAAAAAAAEQQSSNGPVKKSMREKAVERRSVNKEHNSNFKAGYIPIDQDRLHKTGLRGRKGNLAICVIILLFILAVINLIITLVIWAVIRIGPNGCDSMEFHESGLLRFKQVSDMGVIHPLYKSTVGGRRNENLVITGNNQPIVFQQGTTKLSVENNKTSITSDIGMQFFDPRTQNILFSTDYETHEFHLPSGVKSLNVQKASTERITSNATSDLNIKVDGRAIVRGNEGVFIMGKTIEFHMGGNMELKAENSIILNGSVMVSTTRLPSSSSGDQLGSGDWVRYKLCMCADGTLFKVQVTSQNMGCQISDNPCGNTH [E49Q],-0.19
3,MAAAAAAAAEQQSSNGPVKKSMREKAVERRSVNKEHNSNFKAGYIPIDTDRLHKTGLRGRKGNLAICVIILLFILAVINLIITLVIWAVIRIGPNGCDSMEFHESGLLRFKQVSDMGVIHPLYKSTVGGRRNENLVITGNNQPIVFQQGTTKLSVENNKTSITSDIGMQFFDPRTQNILFSTDYETHEFHLPSGVKSLNVQKASTERITSNATSDLNIKVDGRAIVRGNEGVFIMGKTIEFHMGGNMELKAENSIILNGSVMVSTTRLPSSSSGDQLGSGDWVRYKLCMCADGTLFKVQVTSQNMGCQISDNPCGNTH [E49T],0.27
4,MAAAAAAAAEQQSSNGPVKKSMREKAVERRSVNKEHNSNFKAGYIPIDMDRLHKTGLRGRKGNLAICVIILLFILAVINLIITLVIWAVIRIGPNGCDSMEFHESGLLRFKQVSDMGVIHPLYKSTVGGRRNENLVITGNNQPIVFQQGTTKLSVENNKTSITSDIGMQFFDPRTQNILFSTDYETHEFHLPSGVKSLNVQKASTERITSNATSDLNIKVDGRAIVRGNEGVFIMGKTIEFHMGGNMELKAENSIILNGSVMVSTTRLPSSSSGDQLGSGDWVRYKLCMCADGTLFKVQVTSQNMGCQISDNPCGNTH [E49M],0.12
5,MAAAAAAAAEQQSSNGPVKKSMREKAVERRSVNKEHNSNFKAGYIPIDNDRLHKTGLRGRKGNLAICVIILLFILAVINLIITLVIWAVIRIGPNGCDSMEFHESGLLRFKQVSDMGVIHPLYKSTVGGRRNENLVITGNNQPIVFQQGTTKLSVENNKTSITSDIGMQFFDPRTQNILFSTDYETHEFHLPSGVKSLNVQKASTERITSNATSDLNIKVDGRAIVRGNEGVFIMGKTIEFHMGGNMELKAENSIILNGSVMVSTTRLPSSSSGDQLGSGDWVRYKLCMCADGTLFKVQVTSQNMGCQISDNPCGNTH [E49N],0.48
6,MAAAAAAAAEQQSSNGPVKKSMREKAVERRSVNKEHNSNFKAGYIPIDWDRLHKTGLRGRKGNLAICVIILLFILAVINLIITLVIWAVIRIGPNGCDSMEFHESGLLRFKQVSDMGVIHPLYKSTVGGRRNENLVITGNNQPIVFQQGTTKLSVENNKTSITSDIGMQFFDPRTQNILFSTDYETHEFHLPSGVKSLNVQKASTERITSNATSDLNIKVDGRAIVRGNEGVFIMGKTIEFHMGGNMELKAENSIILNGSVMVSTTRLPSSSSGDQLGSGDWVRYKLCMCADGTLFKVQVTSQNMGCQISDNPCGNTH [E49W],0.56
7,MAAAAAAAAEQQSSNGPVKKSMREKAVERRSVNKEHNSNFKAGYIPIDVDRLHKTGLRGRKGNLAICVIILLFILAVINLIITLVIWAVIRIGPNGCDSMEFHESGLLRFKQVSDMGVIHPLYKSTVGGRRNENLVITGNNQPIVFQQGTTKLSVENNKTSITSDIGMQFFDPRTQNILFSTDYETHEFHLPSGVKSLNVQKASTERITSNATSDLNIKVDGRAIVRGNEGVFIMGKTIEFHMGGNMELKAENSIILNGSVMVSTTRLPSSSSGDQLGSGDWVRYKLCMCADGTLFKVQVTSQNMGCQISDNPCGNTH [E49V],0.12
8,MAAAAAAAAEQQSSNGPVKKSMREKAVERRSVNKEHNSNFKAGYIPIDYDRLHKTGLRGRKGNLAICVIILLFILAVINLIITLVIWAVIRIGPNGCDSMEFHESGLLRFKQVSDMGVIHPLYKSTVGGRRNENLVITGNNQPIVFQQGTTKLSVENNKTSITSDIGMQFFDPRTQNILFSTDYETHEFHLPSGVKSLNVQKASTERITSNATSDLNIKVDGRAIVRGNEGVFIMGKTIEFHMGGNMELKAENSIILNGSVMVSTTRLPSSSSGDQLGSGDWVRYKLCMCADGTLFKVQVTSQNMGCQISDNPCGNTH [E49Y],0.09
9,MAAAAAAAAEQQSSNGPVKKSMREKAVERRSVNKEHNSNFKAGYIPIDLDRLHKTGLRGRKGNLAICVIILLFILAVINLIITLVIWAVIRIGPNGCDSMEFHESGLLRFKQVSDMGVIHPLYKSTVGGRRNENLVITGNNQPIVFQQGTTKLSVENNKTSITSDIGMQFFDPRTQNILFSTDYETHEFHLPSGVKSLNVQKASTERITSNATSDLNIKVDGRAIVRGNEGVFIMGKTIEFHMGGNMELKAENSIILNGSVMVSTTRLPSSSSGDQLGSGDWVRYKLCMCADGTLFKVQVTSQNMGCQISDNPCGNTH [E49L],-0.04
